In paper PMC6941229:

Molecular target: SBP-Asi2 (S. cerevisiae) (UniProt P53895)
Chain of UniProt P53895 (P53895 whole entry): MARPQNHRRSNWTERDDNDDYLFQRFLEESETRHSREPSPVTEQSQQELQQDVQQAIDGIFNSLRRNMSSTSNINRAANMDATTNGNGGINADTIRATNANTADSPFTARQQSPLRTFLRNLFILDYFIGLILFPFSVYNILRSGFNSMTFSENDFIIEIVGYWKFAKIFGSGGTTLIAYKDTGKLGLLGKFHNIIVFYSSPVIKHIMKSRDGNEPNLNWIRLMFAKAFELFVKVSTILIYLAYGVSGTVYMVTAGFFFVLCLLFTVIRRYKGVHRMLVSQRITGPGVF

Chain of TM68-MBP (P10614 1-68): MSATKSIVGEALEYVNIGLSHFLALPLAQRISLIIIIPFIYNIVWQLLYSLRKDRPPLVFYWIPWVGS

- ubiquitination of TM68-MBP in proteoliposomes with only the Asi1/Asi3 subcomplex (no Asi2), against proteoliposomes with the entire Asi complex; Ubi Mix, 60 min: 28%
Substance: TM68-MBP (from UniProt P10614 1-68) (domain or fragment)
